For experiment [1], the target named is activin Type II receptors (ActRIIA and ActRIIB) on A204/CAGAx12-Luc cells. The experiment can be described thus: cell-based or functional assay.
The target in experiment [2] is Activin A (R&D Systems, #338-AC) (human) (UniProt P08476). The experiment can be described thus: SPR blocking: 5 nM Activin A + 15 nM binder over hActRIIB-hFc (Control 4) surface.
Experiment [3] shares this target. The experiment can be described thus: SPR blocking: 5 nM Activin A + 30 nM binder over hActRIIB-hFc (Control 4) surface.
Experiment [4] has the same target. The experiment can be described thus: SPR blocking: 5 nM Activin A + 60 nM binder over hActRIIB-hFc (Control 4) surface.
For experiment [5] the target is unchanged. The experiment can be described thus: SPR blocking: 5 nM Activin A + 0.00 nM binder over hActRIIB-hFc (Control 4) surface.
For experiment [6] the target is unchanged. The experiment can be described thus: SPR blocking: 5 nM Activin A + 0.94 nM binder over hActRIIB-hFc (Control 4) surface.
Experiment [7] has the same target. The experiment can be described thus: SPR blocking: 5 nM Activin A + 1.88 nM binder over hActRIIB-hFc (Control 4) surface.
The target is the same in experiment [8]. The experiment can be described thus: SPR blocking: 5 nM Activin A + 3.75 nM binder over hActRIIB-hFc (Control 4) surface.
For experiment [9] the target is unchanged. The experiment can be described thus: SPR blocking: 5 nM Activin A + 7.50 nM binder over hActRIIB-hFc (Control 4) surface.
In experiment [10] the target is Activin A (homodimer of two inhibin betaA subunits) (human) (UniProt P08476). The experiment can be described thus: cell-based or functional assay.
Chain of Activin A (homodimer of two inhibin betaA subunits) (human) (P08476 311-426 limits assumed): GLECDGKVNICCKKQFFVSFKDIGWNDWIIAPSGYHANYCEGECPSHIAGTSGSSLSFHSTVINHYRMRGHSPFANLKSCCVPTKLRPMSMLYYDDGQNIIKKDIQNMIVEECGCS

Chain of Activin A (R&D Systems, #338-AC) (human) (P08476 311-426 limits assumed): as above

In experiment [1], “GDF11 (from UniProt O95390 299-407) (ligand)” registered an activation of A204/CAGAx12-Luc cells, EC50 of 0.084 nM and an activation of A204/CAGAx12-Luc cells, EC50 (separate day) of 0.166 nM.
Take “Activin AC (heterodimer of one betaA subunit and one betaC subunit) (from UniProt P55103 237-352) (ligand)”: the activation of the A204/CAGAx12-Luc cell line (Smad 2/3-luciferase reporter), EC50 in [1] turned out to be 4.4 nM.
For isotype control antibody, the % bound RU w/ no inhibitor in experiment [2] worked out at 110%; in experiment [3], 111%; in [4] it was 115%; in [5], 100%; in experiment [6] it was 105%; in [7], 105%. Besides, the % bound RU w/ no inhibitor is 104% in experiment [8] and 107% in experiment [9].
With “Activin AB (heterodimer of one betaA subunit and one betaB subunit) (from UniProt P08476 311-426; P09529 293-407) (ligand)”, the activation of the A204/CAGAx12-Luc cell line (Smad 2/3-luciferase reporter), EC50 in [1] worked out at 0.019 nM.
Take isotype control antibody (Example 7): in [10], the action potential duration, cardiomyocytes chronically treated with 1 nM activin A plus isotype control came out at 0.56 s; the calcium flux falling time, cardiomyocytes treated with activin A plus isotype control is 0.75 s; the calcium flux rising time, cardiomyocytes treated with activin A plus isotype control was determined as 0.36 s; the field potential amplitude, cardiomyocytes chronically exposed to activin A plus 25 nM isotype control amounted to 42.9 µV. In addition, in experiment [10], the field potential downstroke velocity, cardiomyocytes exposed to activin A plus 25 nM isotype control was determined as 0.019 V/sec and the peak calcium handling amplitude, cardiomyocytes treated with activin A plus isotype control amounted to 484 RFU.
Take “Control 3 (murine anti-Activin A monoclonal antibody from R&D Systems, catalog number MAB3381)”: the % bound RU w/ no inhibitor is 2% in experiment [2]; 1% in experiment [3]; 2% in experiment [4]; 100% in [5]; 135% in [6]; 133% in experiment [7]. The % bound RU w/ no inhibitor was 120% in experiment [8] and 33% in experiment [9].
